For this test, the target named is T1, His6-tagged yeast cyclin C (S. cerevisiae, UniProt P47821 1-323).
T1 sequence (looked up): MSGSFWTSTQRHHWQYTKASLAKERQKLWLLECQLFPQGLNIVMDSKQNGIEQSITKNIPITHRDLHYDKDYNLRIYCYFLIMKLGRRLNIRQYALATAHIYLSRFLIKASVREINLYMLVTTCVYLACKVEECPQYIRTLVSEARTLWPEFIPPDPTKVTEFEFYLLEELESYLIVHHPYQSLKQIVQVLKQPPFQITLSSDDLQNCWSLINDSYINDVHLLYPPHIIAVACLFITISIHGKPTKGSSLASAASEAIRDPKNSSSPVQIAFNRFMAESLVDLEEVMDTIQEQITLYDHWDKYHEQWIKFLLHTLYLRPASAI
Nature of the test: pull-down.

The results in this text go back to publication PMC5996960 (Molecular Biology of the Cell, 2018).

B1: GST-Med13^742-844 (domain or fragment, S. cerevisiae, UniProt P38931 742-844, looked up)
chain: DIPQTESPLKTVDSSIQPIESNIKMTLEDNNVTSNPSEFTPNMVNSEISNLPKDKSGIPEFTPADPNLSFESSSSLPFLLRHMPLASIPDIFITPTPVVTISE
B1: the binding result is recorded as “binds”.
